Starred links: 1 amine or outer side, 2 acyl side, 3 side chain; linkers in the order of their positions; H or OH if unused. Positions of bridges follow the written chain, without caps; N, C: chain ends. Non-standard residues stand in square brackets, D forms with d. Groups on a side chain read outwards from the residue. *: point of attachment. Trp(1-Me) = Cn1cc(C[C@H](N)C(=O)O)c2ccccc21; C18 diacid = O=C(O)CCCCCCCCCCCCCCCCC(=O)*; C16 diacid = O=C(O)CCCCCCCCCCCCCCC(=O)*; γGlu = O=C(O)[C@H](CCC(=O)[*:2])N[*:1]; hCys = N[C@@H](CCS)C(=O)O; AEEA = NCCOCCOCC(=O)O; Sar = CNCC(=O)O
Columns and labels:
Human C3 [1] = biological target: T1, Human C3 (human, UniProt P01024 23-1663); assay: SPR, C3 immobilised
T1 construct: In SPR the bought human C3 was immobilised on CM5 chips by amine coupling; In the haemolysis assay the C3 is that of diluted human serum; also called complement C3
T1 sequence (P01024 23-1663 limits assumed): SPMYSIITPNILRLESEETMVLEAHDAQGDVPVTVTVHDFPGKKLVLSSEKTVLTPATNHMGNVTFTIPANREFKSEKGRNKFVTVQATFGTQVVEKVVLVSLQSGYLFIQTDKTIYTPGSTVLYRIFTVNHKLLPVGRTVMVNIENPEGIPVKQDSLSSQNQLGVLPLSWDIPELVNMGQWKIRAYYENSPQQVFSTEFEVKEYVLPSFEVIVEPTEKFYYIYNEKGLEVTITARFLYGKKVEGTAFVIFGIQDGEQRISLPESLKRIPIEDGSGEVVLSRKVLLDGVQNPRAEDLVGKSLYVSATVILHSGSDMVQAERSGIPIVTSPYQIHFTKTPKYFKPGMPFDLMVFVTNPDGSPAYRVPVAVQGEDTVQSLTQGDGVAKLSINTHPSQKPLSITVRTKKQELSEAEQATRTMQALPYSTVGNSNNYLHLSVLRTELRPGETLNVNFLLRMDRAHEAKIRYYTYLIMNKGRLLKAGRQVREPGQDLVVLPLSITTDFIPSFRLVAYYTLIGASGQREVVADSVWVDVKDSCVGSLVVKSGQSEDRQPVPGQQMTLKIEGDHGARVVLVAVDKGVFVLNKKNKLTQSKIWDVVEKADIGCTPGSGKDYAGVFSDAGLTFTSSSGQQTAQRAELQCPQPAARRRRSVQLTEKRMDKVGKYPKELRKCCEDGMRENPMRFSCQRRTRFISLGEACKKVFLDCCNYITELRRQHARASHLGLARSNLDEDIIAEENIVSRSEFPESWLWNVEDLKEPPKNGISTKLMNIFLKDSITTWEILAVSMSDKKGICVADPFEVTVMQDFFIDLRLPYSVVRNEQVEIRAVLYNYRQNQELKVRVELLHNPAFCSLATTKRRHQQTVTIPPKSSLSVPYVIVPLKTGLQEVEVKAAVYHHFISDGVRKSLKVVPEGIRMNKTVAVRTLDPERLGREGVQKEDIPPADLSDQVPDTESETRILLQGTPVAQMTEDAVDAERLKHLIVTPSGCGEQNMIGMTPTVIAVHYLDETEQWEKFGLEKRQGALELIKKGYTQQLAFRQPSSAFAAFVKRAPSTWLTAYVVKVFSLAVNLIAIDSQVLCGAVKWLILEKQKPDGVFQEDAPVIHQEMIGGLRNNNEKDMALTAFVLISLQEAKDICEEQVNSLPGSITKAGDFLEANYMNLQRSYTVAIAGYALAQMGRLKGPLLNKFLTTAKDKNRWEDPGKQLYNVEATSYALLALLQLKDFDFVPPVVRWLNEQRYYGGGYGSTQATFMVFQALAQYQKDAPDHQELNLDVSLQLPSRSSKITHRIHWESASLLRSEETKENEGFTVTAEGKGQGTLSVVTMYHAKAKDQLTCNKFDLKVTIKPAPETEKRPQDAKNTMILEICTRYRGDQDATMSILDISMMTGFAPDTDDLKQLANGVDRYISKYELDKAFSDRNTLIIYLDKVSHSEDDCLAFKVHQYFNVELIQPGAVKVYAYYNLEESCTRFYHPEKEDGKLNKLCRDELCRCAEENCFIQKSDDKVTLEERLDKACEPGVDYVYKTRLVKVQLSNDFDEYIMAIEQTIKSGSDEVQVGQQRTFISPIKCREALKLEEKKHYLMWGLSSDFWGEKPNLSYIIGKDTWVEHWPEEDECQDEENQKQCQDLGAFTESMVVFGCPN
Description: Surface plasmon resonance (SPR) was used to characterize peptides with respect to their binding affinity (Kd) for C3. Human C3 (Complement tech cat #A1 13c) was immobilised on individual flow cells of CM5 sensor chips (GE Healthcare) using standard amine coupling to a density of approximately 3000 resonance units (RU) in a buffer consisting of 10 mM phosphate pH 7.4, 150 mM NaCl, 0.05% Tween20.
For interaction experiments a multi-cycle experiment approach was used and performed using either a Biacore™ T200 or Biacore™ X100 instrument (GE Healthcare) at 25° C. Peptides were injected in increasing concentration series (5-8 different concentrations) for 60-120 s at a flow rate of 30 μL/min in a buffer consisting of 10 mM Tris buffer at pH 7.4, with 150 mM NaCl and 0.05% Tween20. This was followed by a dissociation period for up to 10 min. The C3 surface was regenerated between runs by a 45 s injection of 3 M MgCl₂.
Sensorgrams were double-referenced (reference surface, blanks) prior to analysis of the kinetic profiles by globally fitting data to a 1:1 Langmuir binding model to obtain association and dissociation rates for calculation of the equilibrium dissociation constant Kd. Each peptide was tested at in at least 2 independent experiments.

Human C3 [2] = biological target: T1, Human C3; assay: cell-based or functional assay

Row | Binder | Kd (Human C3 [1]) [nM] | IC50[nM], inhibition of hemolysis (Human C3 [2]) [nM]
1 | Ac-SEFCI[Trp(1-Me)]QEWGEHRC[Sar]EGE[AEEA][AEEA]K([γGlu-Gly-γGlu-C18 diacid])-NH2 (disulfide 4-14; SMILES CC[C@H](C)[C@@H]1NC(=O)[C@@H](NC(=O)[C@H](Cc2ccccc2)NC(=O)[C@H](CCC(=O)O)NC(=O)[C@H](CO)NC(C)=O)CSSC[C@@H](C(=O)N(C)CC(=O)N[C@@H](CCC(=O)O)C(=O)NCC(=O)N[C@@H](CCC(=O)O)C(=O)NCCOCCOCC(=O)NCCOCCOCC(=O)N[C@@H](CCCCNC(=O)CC[C@H](NC(=O)CNC(=O)CC[C@H](NC(=O)CCCCCCCCCCCCCCCCC(=O)O)C(=O)O)C(=O)O)C(N)=O)NC(=O)[C@H](CCCNC(=N)N)NC(=O)[C@H](Cc2c[nH]cn2)NC(=O)[C@H](CCC(=O)O)NC(=O)CNC(=O)[C@H](Cc2c[nH]c3ccccc23)NC(=O)[C@H](CCC(=O)O)NC(=O)[C@H](CCC(N)=O)NC(=O)[C@H](Cc2cn(C)c3ccccc23)NC1=O) [Compound 124] | 31 | < 100
2 | SEFAIWQDWGEHRCGEGEXXK (not fully specified; N-acetyl; C-terminal amide; delta-cystathionine (Ctt2) thioether bridge A4-hCys14 (hCys written C); W6 is 1-Me-Trp; G15 is Sar; X19 and X20 are Peg3; K21 side chain bears [17-carboxy-heptadecanoyl][γGlu]G[γGlu]) [Compound 146] | 0.43 | < 100
3 | Ac-SEYCI[Trp(1-Me)]QEWGEHRC[Sar]EGE[AEEA][AEEA]K([γGlu-Gly-γGlu-C18 diacid])-NH2 (disulfide 4-14; SMILES CC[C@H](C)[C@@H]1NC(=O)[C@@H](NC(=O)[C@H](Cc2ccc(O)cc2)NC(=O)[C@H](CCC(=O)O)NC(=O)[C@H](CO)NC(C)=O)CSSC[C@@H](C(=O)N(C)CC(=O)N[C@@H](CCC(=O)O)C(=O)NCC(=O)N[C@@H](CCC(=O)O)C(=O)NCCOCCOCC(=O)NCCOCCOCC(=O)N[C@@H](CCCCNC(=O)CC[C@H](NC(=O)CNC(=O)CC[C@H](NC(=O)CCCCCCCCCCCCCCCCC(=O)O)C(=O)O)C(=O)O)C(N)=O)NC(=O)[C@H](CCCNC(=N)N)NC(=O)[C@H](Cc2c[nH]cn2)NC(=O)[C@H](CCC(=O)O)NC(=O)CNC(=O)[C@H](Cc2c[nH]c3ccccc23)NC(=O)[C@H](CCC(=O)O)NC(=O)[C@H](CCC(N)=O)NC(=O)[C@H](Cc2cn(C)c3ccccc23)NC1=O) [Compound 125] | 71 | < 500
4 | Ac-SEFCI[Trp(1-Me)]QDWGEHRCTEGE[AEEA][AEEA]K([γGlu-Gly-γGlu-C18 diacid])-NH2 (disulfide 4-14) [Compound 126] | 5.2 | < 100
5 | GEFAIWQDWGEHRCGEAEXXK (not fully specified; N-acetyl; C-terminal amide; delta-cystathionine (Ctt2) thioether bridge A4-hCys14 (hCys written C); W6 is 1-Me-Trp; G10 is Sar; G15 is Sar; X19 and X20 are Peg3; K21 side chain bears [17-carboxy-heptadecanoyl][γGlu]G[γGlu]) [Compound 149] | 0.5 | < 100
6 | Ac-SEF[hCys]I[Trp(1-Me)]QEWGEHRA[Sar]EGE[AEEA][AEEA]K([γGlu-Gly-γGlu-C18 diacid])-NH2 (thioether 4-14) [Compound 167] | 57.4 | < 500
7 | SEFAIWQEWGEHRCGEGEXXK (not fully specified; N-acetyl; C-terminal amide; delta-cystathionine (Ctt2) thioether bridge A4-hCys14 (hCys written C); W6 is 1-Me-Trp; G15 is Sar; X19 and X20 are Peg3; K21 side chain bears [17-carboxy-heptadecanoyl][γGlu]G[γGlu]) [Compound 153] | 11.1 | < 100
8 | Ac-SEFCI[Trp(1-Me)]QDWGEHRC[Sar]EGAK([AEEA-γGlu-AEEA-Gly-γGlu-C18 diacid])-NH2 (disulfide 4-14; SMILES CC[C@H](C)[C@@H]1NC(=O)[C@@H](NC(=O)[C@H](Cc2ccccc2)NC(=O)[C@H](CCC(=O)O)NC(=O)[C@H](CO)NC(C)=O)CSSC[C@@H](C(=O)N(C)CC(=O)N[C@@H](CCC(=O)O)C(=O)NCC(=O)N[C@@H](C)C(=O)N[C@@H](CCCCNC(=O)COCCOCCNC(=O)CC[C@H](NC(=O)COCCOCCNC(=O)CNC(=O)CC[C@H](NC(=O)CCCCCCCCCCCCCCCCC(=O)O)C(=O)O)C(=O)O)C(N)=O)NC(=O)[C@H](CCCNC(=N)N)NC(=O)[C@H](Cc2c[nH]cn2)NC(=O)[C@H](CCC(=O)O)NC(=O)CNC(=O)[C@H](Cc2c[nH]c3ccccc23)NC(=O)[C@H](CC(=O)O)NC(=O)[C@H](CCC(N)=O)NC(=O)[C@H](Cc2cn(C)c3ccccc23)NC1=O) [Compound 119] | 9.8 | < 100
9 | Ac-SEYCI[Trp(1-Me)]QEWGEHRC[Sar]EGAK([AEEA-γGlu-AEEA-Gly-γGlu-C18 diacid])-NH2 (disulfide 4-14; SMILES CC[C@H](C)[C@@H]1NC(=O)[C@@H](NC(=O)[C@H](Cc2ccc(O)cc2)NC(=O)[C@H](CCC(=O)O)NC(=O)[C@H](CO)NC(C)=O)CSSC[C@@H](C(=O)N(C)CC(=O)N[C@@H](CCC(=O)O)C(=O)NCC(=O)N[C@@H](C)C(=O)N[C@@H](CCCCNC(=O)COCCOCCNC(=O)CC[C@H](NC(=O)COCCOCCNC(=O)CNC(=O)CC[C@H](NC(=O)CCCCCCCCCCCCCCCCC(=O)O)C(=O)O)C(=O)O)C(N)=O)NC(=O)[C@H](CCCNC(=N)N)NC(=O)[C@H](Cc2c[nH]cn2)NC(=O)[C@H](CCC(=O)O)NC(=O)CNC(=O)[C@H](Cc2c[nH]c3ccccc23)NC(=O)[C@H](CCC(=O)O)NC(=O)[C@H](CCC(N)=O)NC(=O)[C@H](Cc2cn(C)c3ccccc23)NC1=O) [Compound 122] | 63 | < 500
10 | Ac-SEFAI[Trp(1-Me)]QDWGEHR[hCys][Sar]EGAK([AEEA-γGlu-AEEA-Gly-γGlu-C18 diacid])-NH2 (thioether 4-14; not fully specified) [Compound 154] | 2.4 | < 100
11 | Ac-SEFCI[Trp(1-Me)]QDWGEHRCTEGEGGGK([γGlu-Gly-γGlu-C18 diacid])-NH2 (disulfide 4-14; SMILES CC[C@H](C)[C@@H]1NC(=O)[C@@H](NC(=O)[C@H](Cc2ccccc2)NC(=O)[C@H](CCC(=O)O)NC(=O)[C@H](CO)NC(C)=O)CSSC[C@@H](C(=O)N[C@H](C(=O)N[C@@H](CCC(=O)O)C(=O)NCC(=O)N[C@@H](CCC(=O)O)C(=O)NCC(=O)NCC(=O)NCC(=O)N[C@@H](CCCCNC(=O)CC[C@H](NC(=O)CNC(=O)CC[C@H](NC(=O)CCCCCCCCCCCCCCCCC(=O)O)C(=O)O)C(=O)O)C(N)=O)[C@@H](C)O)NC(=O)[C@H](CCCNC(=N)N)NC(=O)[C@H](Cc2c[nH]cn2)NC(=O)[C@H](CCC(=O)O)NC(=O)CNC(=O)[C@H](Cc2c[nH]c3ccccc23)NC(=O)[C@H](CC(=O)O)NC(=O)[C@H](CCC(N)=O)NC(=O)[C@H](Cc2cn(C)c3ccccc23)NC1=O) [Compound 130] | 4.4 | < 100
12 | Ac-SEFAI[Trp(1-Me)]QDWGEHR[hCys]TEGEGGGK([γGlu-Gly-γGlu-C18 diacid])-NH2 (thioether 4-14; SMILES CC[C@H](C)[C@@H]1NC(=O)[C@@H](NC(=O)[C@H](Cc2ccccc2)NC(=O)[C@H](CCC(=O)O)NC(=O)[C@H](CO)NC(C)=O)CSCC[C@@H](C(=O)N[C@H](C(=O)N[C@@H](CCC(=O)O)C(=O)NCC(=O)N[C@@H](CCC(=O)O)C(=O)NCC(=O)NCC(=O)NCC(=O)N[C@@H](CCCCNC(=O)CC[C@H](NC(=O)CNC(=O)CC[C@H](NC(=O)CCCCCCCCCCCCCCCCC(=O)O)C(=O)O)C(=O)O)C(N)=O)[C@@H](C)O)NC(=O)[C@H](CCCNC(=N)N)NC(=O)[C@H](Cc2c[nH]cn2)NC(=O)[C@H](CCC(=O)O)NC(=O)CNC(=O)[C@H](Cc2c[nH]c3ccccc23)NC(=O)[C@H](CC(=O)O)NC(=O)[C@H](CCC(N)=O)NC(=O)[C@H](Cc2cn(C)c3ccccc23)NC1=O) [Compound 157] | 3.5 | < 100
13 | Ac-SEFCI[Trp(1-Me)]QDWGEHRC[Sar]EGE[AEEA][AEEA]K([γGlu-Gly-γGlu-C16 diacid])-NH2 (disulfide 4-14) [Compound 127] | 8.5 | < 100
14 | Ac-SEFCI[Trp(1-Me)]QDWGEHRC[Sar]EGESESK([γGlu-Gly-γGlu-C18 diacid])-NH2 (disulfide 4-14; SMILES CC[C@H](C)[C@@H]1NC(=O)[C@@H](NC(=O)[C@H](Cc2ccccc2)NC(=O)[C@H](CCC(=O)O)NC(=O)[C@H](CO)NC(C)=O)CSSC[C@@H](C(=O)N(C)CC(=O)N[C@@H](CCC(=O)O)C(=O)NCC(=O)N[C@@H](CCC(=O)O)C(=O)N[C@@H](CO)C(=O)N[C@@H](CCC(=O)O)C(=O)N[C@@H](CO)C(=O)N[C@@H](CCCCNC(=O)CC[C@H](NC(=O)CNC(=O)CC[C@H](NC(=O)CCCCCCCCCCCCCCCCC(=O)O)C(=O)O)C(=O)O)C(N)=O)NC(=O)[C@H](CCCNC(=N)N)NC(=O)[C@H](Cc2c[nH]cn2)NC(=O)[C@H](CCC(=O)O)NC(=O)CNC(=O)[C@H](Cc2c[nH]c3ccccc23)NC(=O)[C@H](CC(=O)O)NC(=O)[C@H](CCC(N)=O)NC(=O)[C@H](Cc2cn(C)c3ccccc23)NC1=O) [Compound 139] | 7.4 | < 100

Source: patent US20220306695A1, “COMPSTATIN ANALOGUES AND THEIR MEDICAL USES” (priority 2019, published 2022)
